The target of data set [1] is T1, Rbfox RRM (109-208) (Homo sapiens, UniProt Q9NWB1 109-208).
T1 sequence: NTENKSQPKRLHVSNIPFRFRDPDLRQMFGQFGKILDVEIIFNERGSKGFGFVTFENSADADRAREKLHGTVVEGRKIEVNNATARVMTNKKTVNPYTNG
Description: NMR.

The target in the next data set is T2, Rbfox1 RRM (109-225) (Homo sapiens, UniProt Q9NWB1 109-225).
T2 sequence: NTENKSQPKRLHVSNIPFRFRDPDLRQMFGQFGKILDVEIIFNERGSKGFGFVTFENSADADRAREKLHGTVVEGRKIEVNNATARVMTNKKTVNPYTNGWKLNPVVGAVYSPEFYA
Description: NMR.

Data set [2] addresses T1, Rbfox RRM (109-208). Description: EMSA.

The Kd is the equilibrium constant for the complex coming apart.

B1: pre-miR-20b 46-nt (G7-C52) (structured_RNA)
RNA: GCUCAUAGUGCAGGUAGUUUUGGCAUGACUCUACUGUAGUAUGGGC
Turning to B1, in the data set with Rbfox RRM (109-208) [1], the binding result is reported as “binds”.

B2: pre-miR-20b 46-nt, 4-thio-U43 spin-labeled (structured_RNA)
RNA: GCUCAUAGUGCAGGUAGUUUUGGCAUGACUCUACUGUAGUAUGGGC
modifications: 4-thiouridine at U43 carrying spin label
For B2, the binding result with Rbfox1 RRM (109-225) was “binds”.

B3: pre-miR-20b full-length (structured_RNA)
RNA: AGUACCAAAGUGCUCAUAGUGCAGGUAGUUUUGGCAUGACUCUACUGUAGUAUGGGCACUUCCAGUACU
Consider B3, for which, in the data set with Rbfox RRM (109-208) [2], the dissociation constant Kd was roughly 50 nM.

For the origin of these results see PMC4872098.
